Results taken from the RNAGym collection of RNA variant scans (doi:10.1073/pnas.2313332121).
Variants at the floor of the assay were thinned out.

B1: TPR 5TU (parent)
chain: GGAUCUUCUCGAUCUAACAAAAAAGACAAAUCUGCCACAAAGCUUGAGAGCAUCUUCGGAUGCAGAGGCGGCAGCCUUCGGUGGCGCGAUAGCGCCAACGUUCUCAACUAUGACACGCAAAACGCGUGCUCCGUUGAAUGGAGUUUAUCAUG

Variants of: B1
Assay: polymerase ribozyme fitness, log enrichment relative to wild type (log ratio); higher = more active; in vitro selection for triplet polymerase activity
How it was run: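 One round of in vitro selection, in triplicate, was applied to PCR-built, transcribed mutant libraries of each subunit of a heterodimeric triplet polymerase ribozyme. The steps were annealing with a biotinylated primer, partner subunit and triplets, incubation frozen at −7 °C, gel excision of extended constructs, streptavidin-bead capture and RT-PCR. Fitness is the logarithm, base 2, of genotype enrichment over wild-type enrichment from inverse-variance-weighted replicate averages of Illumina-sequenced inputs and outputs, keeping genotypes with ≥10 input reads and ≥1 read per output.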
In the case of GGAUCUUCUCGAUCUAACAAAAAAGACAAAUCUGCCACAAAGCUUGAGAACAUCUUCGGAUGCAGAGGCGGCAGCCUUCGGUGGGGCGAUAGAGCCAACGUUCUCAACUAUGACACGCAAAACGCGUGGUCCGUUGAAUGGAGUUUAUCAUG [G50A C85G C93A C129G], the “polymerase ribozyme fitness (log ratio)” value is reported as no more than -4.2.
With GGAUCUUCUCGAUCUAACAAAAAAGACAAAUCUGCCACAAAGCUUGAGAACAUCUUCGGAUGCAGAGGCGGCAGCCUUCGGUGGCGUGAUAGCGCCAACGUUCUCAACUAUGACACGCAAAACGCGUGCUCCGUUGAAUGGAGUUUAUCAUG [G50A C87U] the “polymerase ribozyme fitness (log ratio)” value was -1.74.
With GGAUCUUCUCGAUCUAACAAAAAAGACAAAUCUGCCACAAAGCUUGAGAACAUCUUCGGAUGCAGAGGCGGCAGCCUUCGGUGGCGCGAUAGCGUCAACGUUCUCAACUAUGACAUGCAAAACGCGUGCUCCGUUGAAUGGAGUUUAUCAUG [G50A C95U C116U] the “polymerase ribozyme fitness (log ratio)” value was -1.99.
With GGAUCUUCUCGAUCUAACAAAAAAGACAAAUCUGCCACAAAGCUUGAGAACAUCUUCGGAUGCAGAGGUGGCAGCCUUCGGUGUCGCGAUAGCGCCAUCGUUCUCAACUAUGACACGCAAAGCGCGUGCUCCGUUGAAUGGAGUUUAUCAUG [G50A C69U G84U A98U A122G] the “polymerase ribozyme fitness (log ratio)” value was no more than -4.2.
In the case of GGAUCUUCUCGAUCUAACAAAAAAGACAAAUCUGCCACAAAGCUUGAGAAUAUCUUCGGAUGCAGAGGCGGCACCCUUCGGCGGCGCGAUAGCGCCAACGUUCUCAACUAUGACACGCAAAACGCGUGCUCCGUUGAAUAGAGUUGAUCAUG [G50A C51U G74C U82C G140A U146G], the “polymerase ribozyme fitness (log ratio)” value is reported as no more than -4.2.
For GGAUCUUCUCGAUCUAACAAAAAAGACAAAUCUGCCACAAAGCUUGAGAACAUCUUCGGAUGCAGAGGCGGCAGCCUUCGGUGGCGCGAUAGCGCCAACGUUCUCAACUAUGACACGCAAAACGCGUGCUCCGUUGAAUGGCGUUUAUCAUG [G50A A142C], the “polymerase ribozyme fitness (log ratio)” value was -3.12.
With GGAUCUUCUCGAUCUAACAAAAAAGACAAAUCUGCCACAAAGCUUGAGAACAUCUUUGGAUGCAGAGGCGGCAUGCUUCGGUGGCGAGAUAGCGCCCACGUUCUCAACUAUGACACGCAAAACGCGUGCUCCGUUGAAUGGAGUUUAUCGUG [G50A C57U G74U C75G C87A A97C A150G] the “polymerase ribozyme fitness (log ratio)” value was no more than -4.2.
With GGAUCUUCUCGAUCUAACAAAAAAGACAAAUCUGCCACAAAGCUUGAGAACAUCUUCGGAUGCAGAGGCGGCAGCAUUCGGUGGCGCGAUAACGCCAACGGUCUCAACUAUGACACGCAAAACGCGUUCGCCGUUGAAUGGAGUUUAUCAUG [G50A C76A G92A U101G G128U U130G] the “polymerase ribozyme fitness (log ratio)” value was no more than -4.2.
For GGAUCUUCUCGAUCUAACAAAAAAGACAAAUCUGCCACAAAGCUUGAGAACAUCUUCGGAUGCAGAGGCGGCAGCUUUCGGUGGCGCGAUAGUGCCACCGUUCUCAACUAUGACACGCAAAACGCGUGCUCCGUUGAAUGGAGUUUAUCAUG [G50A C76U C93U A98C], the “polymerase ribozyme fitness (log ratio)” value was -3.32.
In the case of GGAUCUUCUCGAUCUAACAAAAAAGACAAAUCUGCCACAAAGCUUGAGAACAUCUUAGGAUGCAGAGGCGGCAGCCUUCGGUGGAGCGAUCGCGCCACCGUUCUCAACUAUGACACGCAAUACGCGUUCUCCGUGGAAUGGUAUUUAUCAUG [G50A C57A C85A A91C A98C A121U G128U U135G A142U G143A], the “polymerase ribozyme fitness (log ratio)” value is reported as no more than -4.2.
In the case of GGAUCUUCUCGAUCUAACAAAAAAGACAAAUCUGCCACAAAGCUUGAGAACAUCUUCGGAUGCAGAGGCGGCAGCCUUCGGUGGCGCGAUAGCGCAAACGUUCUCAACUAUGACACGCAAAACGCGUGCUCCGUUGAAUGGAGUUUAUCAUG [G50A C96A], the “polymerase ribozyme fitness (log ratio)” value is reported as -2.68.
With GGAUCUUCUCGAUCUAACAAAAAAGACAAAUCUGCCACAAAGCUUGAGAACAUCUUCGGAUGCAGAGGCGGCAGCCUUCGGUGGCGCGAUAGCGCGAACGUUCUCAACUAUGACACGCAAAACGCGUGCUCCGUUGAAUGGAGUUUAUCAUG [G50A C96G] the “polymerase ribozyme fitness (log ratio)” value was -1.55.
For GGAUCUUCUCGAUCUAACAAAAAAGACAAAUCUGCCACAAAGCUUGAGAACAUCUUCGGAUGCAGAGGCGGCAGCCUUCGGUGGUGCGAUAGCGCUAACGUUCUUAACUAUGACACGCAAAACGCGUGCUCCGUUGAAUGAAGUUUAUCAUG [G50A C85U C96U C105U G141A], the “polymerase ribozyme fitness (log ratio)” value was -1.94.
For GGAUCUUCUCGAUCUAACAAAAAAGACAAAUCUGCCACAAAGCUUGAGAACAUCUUCGGAUGCAGAGGCGGCAGCCUUCGGUGGCGCGAUAGCGCCAACGUUCUCAACUAUGACACGCAAAACGCGUGCUCCGUUGAAUGGAGUUUAUCUUG [G50A A150U], the “polymerase ribozyme fitness (log ratio)” value was -1.41.
In the case of GGAUCUUCUCGAUCUAACAAAAAAGACAAAUCUGCCACAAAGCUUGAGAACAUUAUCGGAUGCAGAGGCGGCGGCCUUCGGUGGCGCGAUAGCGCCAACGUUCUCAACUAUGACACGCAAAACGCGUGCUCCGUUGAAUGGAGUUUAUCAUG [G50A C54U U55A A73G], the “polymerase ribozyme fitness (log ratio)” value is reported as no more than -4.2.
With GGAUCUUCUCGAUCUAACAAAAAAGACAAAUCUGCCACAAAGCUUGAGAACAUCUUCGGAUGCAGAGGCGGUAGCCUUCGGUGGCGCGAUAGCGCCACAGUUCUCAACUAUGACACGCAAAACGCGUGCUCCGUUGAAUGGAGUUUAUCAUG [G50A C72U A98C C99A] the “polymerase ribozyme fitness (log ratio)” value was no more than -4.2.
For GGAUCUUCUCGAUCUAACAAAAAAGACAAAUCUGCCACAAAGCUUGAGAACAUCUUAGGAUGCAGAGGCGGCAGCCUUCGGUGGCGCGAUAGCGCCAAAGUUCUCAACUAUGACACGCAAAACGCGUGCUCCGUUGAAUGGAGUUUAUCAUG [G50A C57A C99A], the “polymerase ribozyme fitness (log ratio)” value was -2.67.
With GGAUCUUCUCGAUCUAACAAAAAAGACAAAUCUGCCACAAAGCUUGAGAACAUCUUCGGAUGCAGAGGCGGCAGCCUUCGGUGGCGCGAUAGUGCCAACGUUCUCAACUAUGACACGCAAAACGCGUGCUCCGUUGAAUGGAGUUUAUCAUG [G50A C93U] the “polymerase ribozyme fitness (log ratio)” value was -3.07.
With GGAUCUUCUCGAUCUAACAAAAAAGACAAAUCUGCCACAAAGCUUGAGAACAUCUUCGGAUGCAGAGGCGGCAGCCUUCGGUGGCGCGAUAGCGUCAACGUUCUCAACUAUGACACGCAAAACGUGUGCUCCGUUGAAUGGAGUUUAUCAUG [G50A C95U C125U] the “polymerase ribozyme fitness (log ratio)” value was -2.44.
